Results as given in article doi:10.1101/2020.05.01.070730 (bioRxiv, 2020).

T1: MutS R842E (Pseudomonas aeruginosa, UniProt Q9HY08 1-855, R842E)
T1 sequence: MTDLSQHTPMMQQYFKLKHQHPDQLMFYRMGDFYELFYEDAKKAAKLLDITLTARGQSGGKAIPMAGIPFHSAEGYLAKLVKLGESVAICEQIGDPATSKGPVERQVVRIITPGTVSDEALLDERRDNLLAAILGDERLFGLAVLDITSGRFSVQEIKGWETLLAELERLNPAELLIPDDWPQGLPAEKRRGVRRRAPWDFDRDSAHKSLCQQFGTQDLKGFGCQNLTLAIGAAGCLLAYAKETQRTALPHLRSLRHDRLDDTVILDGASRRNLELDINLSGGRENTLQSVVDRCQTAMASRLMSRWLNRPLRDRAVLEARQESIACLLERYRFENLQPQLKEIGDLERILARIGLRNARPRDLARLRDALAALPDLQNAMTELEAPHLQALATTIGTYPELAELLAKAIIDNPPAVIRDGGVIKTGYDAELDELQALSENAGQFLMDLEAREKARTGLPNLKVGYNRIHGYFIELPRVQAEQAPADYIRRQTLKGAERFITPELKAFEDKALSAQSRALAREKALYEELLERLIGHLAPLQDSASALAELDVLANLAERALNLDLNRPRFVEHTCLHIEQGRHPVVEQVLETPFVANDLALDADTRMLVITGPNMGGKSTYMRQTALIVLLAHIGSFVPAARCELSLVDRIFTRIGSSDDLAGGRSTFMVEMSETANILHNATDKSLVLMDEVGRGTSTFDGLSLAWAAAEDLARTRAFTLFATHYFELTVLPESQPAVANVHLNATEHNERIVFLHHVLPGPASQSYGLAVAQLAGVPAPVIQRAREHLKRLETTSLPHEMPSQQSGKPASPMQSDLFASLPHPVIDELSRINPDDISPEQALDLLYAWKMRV

T2: MutS E. coli (Escherichia coli, UniProt P23909 1-853)
T2 sequence: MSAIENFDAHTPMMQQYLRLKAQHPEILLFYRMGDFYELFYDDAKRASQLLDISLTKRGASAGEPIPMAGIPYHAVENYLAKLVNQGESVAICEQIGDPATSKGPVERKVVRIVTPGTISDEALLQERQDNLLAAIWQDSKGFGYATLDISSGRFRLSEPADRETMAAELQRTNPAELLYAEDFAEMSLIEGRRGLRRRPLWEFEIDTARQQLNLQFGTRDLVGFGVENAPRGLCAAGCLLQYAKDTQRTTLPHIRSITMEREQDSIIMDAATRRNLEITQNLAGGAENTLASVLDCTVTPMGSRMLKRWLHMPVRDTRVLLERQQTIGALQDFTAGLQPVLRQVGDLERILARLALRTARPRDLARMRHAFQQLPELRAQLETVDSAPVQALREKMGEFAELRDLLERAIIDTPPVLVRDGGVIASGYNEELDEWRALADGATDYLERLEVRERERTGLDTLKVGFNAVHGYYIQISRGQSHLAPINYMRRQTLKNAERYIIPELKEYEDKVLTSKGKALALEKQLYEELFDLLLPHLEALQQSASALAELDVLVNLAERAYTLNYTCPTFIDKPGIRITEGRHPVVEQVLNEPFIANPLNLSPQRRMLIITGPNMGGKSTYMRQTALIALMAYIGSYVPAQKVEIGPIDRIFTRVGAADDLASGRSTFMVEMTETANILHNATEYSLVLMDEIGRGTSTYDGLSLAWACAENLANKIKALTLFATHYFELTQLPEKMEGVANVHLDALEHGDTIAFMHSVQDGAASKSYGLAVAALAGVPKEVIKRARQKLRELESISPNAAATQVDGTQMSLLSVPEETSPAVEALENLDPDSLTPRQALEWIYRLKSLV

T3: MutS (Pseudomonas aeruginosa, UniProt Q9HY08 1-855)
T3 sequence: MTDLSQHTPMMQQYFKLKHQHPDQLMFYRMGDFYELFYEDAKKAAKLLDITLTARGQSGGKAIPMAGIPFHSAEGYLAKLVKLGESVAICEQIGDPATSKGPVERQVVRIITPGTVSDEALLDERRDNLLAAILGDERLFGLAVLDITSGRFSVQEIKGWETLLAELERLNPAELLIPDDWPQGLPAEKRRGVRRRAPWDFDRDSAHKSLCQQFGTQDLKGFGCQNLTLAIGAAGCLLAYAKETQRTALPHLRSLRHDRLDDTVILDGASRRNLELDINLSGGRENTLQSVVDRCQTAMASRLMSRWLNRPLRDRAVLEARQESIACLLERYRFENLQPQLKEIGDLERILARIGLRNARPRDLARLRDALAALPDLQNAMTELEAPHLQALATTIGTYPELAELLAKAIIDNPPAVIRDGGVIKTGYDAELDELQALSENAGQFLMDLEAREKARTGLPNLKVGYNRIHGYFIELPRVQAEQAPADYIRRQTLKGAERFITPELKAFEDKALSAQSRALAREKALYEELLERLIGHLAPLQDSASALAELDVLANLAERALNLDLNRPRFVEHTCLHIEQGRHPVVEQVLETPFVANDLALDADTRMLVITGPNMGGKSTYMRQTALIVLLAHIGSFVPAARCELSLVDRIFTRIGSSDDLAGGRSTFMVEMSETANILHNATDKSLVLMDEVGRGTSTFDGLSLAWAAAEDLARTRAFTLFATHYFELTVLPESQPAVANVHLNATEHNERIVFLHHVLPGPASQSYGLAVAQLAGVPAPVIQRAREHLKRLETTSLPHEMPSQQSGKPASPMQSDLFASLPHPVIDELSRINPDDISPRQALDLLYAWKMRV

B1: GT-pDNA (GT 8 nt from 3'-OH) (dsDNA)
DNA 1: ATGTGAATCAGTATGGTTGCTATCTGC
DNA 2: ATTTCCTTCAGCAGATAGTAACCATACTGATTCACAT
B2: GT-dsDNA (GT 18 nt from 3' end) (dsDNA)
DNA 1: ATGTGAATCAGTATGGTTGCTATCTGCTGAAGGAAAT
DNA 2: ATTTCCTTCAGCAGATAGTAACCATACTGATTCACAT

Key:
MutS R842E = target: T1, MutS R842E; assay: native PAGE shift
MutS E. coli = target: T2, MutS E. coli; assay: native PAGE shift
MutS = target: T3, MutS; assay: SPR

| Binder | binding result (MutS R842E) | binding result (MutS E. coli) | Kd (MutS) |
| --- | --- | --- | --- |
| B1 | binds | binds | – |
| B2 | – | – | 118 ± 8.9 nM |
